Measurements published in patent publication US20200223915A1 (OSAKA UNIVERSITY, published 2020).

T1: wild-type human Claudin 5 protein (human, UniProt O00501 1-218)
T1 construct: also called hCLDN5; CLDN 5
T1 sequence: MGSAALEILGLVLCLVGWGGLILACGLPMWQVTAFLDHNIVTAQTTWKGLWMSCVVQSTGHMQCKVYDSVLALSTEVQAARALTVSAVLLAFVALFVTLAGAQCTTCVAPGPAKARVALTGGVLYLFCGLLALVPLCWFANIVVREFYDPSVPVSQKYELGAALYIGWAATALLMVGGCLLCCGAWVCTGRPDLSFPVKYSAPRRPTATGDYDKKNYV

B1: antibody 1B3 (antibody, IgG2, V domains shown)
VH: QIQLVQSGPELKKPGETVKISCKASGYSFTAHGMSWVKQAPGKGLKWMGWINTYSGVPAYADDFKGRFAFSLETSPSTAFLQINNLKNEDTATYFCTRSHYDRKFGYWGQGTLVTVSA
VL: QAVVTQESALTTSPGETVTLTCRSSTGAVTTSNYANWVQEKPDHLFTGLIGDTNNRAPGVPARFSGSLIGDKAALTITGAQTGDEAIYFCALWYSNLWVFGGGTKLTVRG
notes: Tested as hybridoma culture supernatant in the screening; also called antibody E
B2: antibody 1D1 (antibody, IgG2a, V domains shown)
VH: QVQLQQPGAEHVKPGASVKLSCKASGYTFTTYWIHWVKQRPGRGLEWIGRIAPNSGGTKYNENFKSKATLTVDRPSTTAYMQLSGLTSEDSAVYYCARWDFTFGTNLDYWGQGTTLTVSS
VL: DIVMTQSQKFMSTSVGDRVSITCKASQNVRTAVAWYQQKPGQSPKALIFLASNRHTGVPDRFTGSGSGTDFTLTITNVQSEDLADYFCLQHWTYPYTFGGGTKLEIKR
notes: Tested as hybridoma culture supernatant in the screening; also called antibody F
B3: antibody 3A5 (antibody, IgG2a, V domains shown)
VH: QVQLQQPGTELVKPGASVKLSCKASGYTFTSYWMHWVKQRPGQGLEWIGNINPSNGGTNYNEKFKSKATLTVDKSSTTAYMLLSSLTSEDSAVYYCARYYGSSFLYWYFDVWGTGTTVTVSS
VL: DIVMTQSHKFMSSSVGDRVSITCKASQDVGTAVAWYQQKPGQSPKILIYWASTRHTGVPDRFTGSGSGTDFTLTISNVQSEDLADYFCQQYSSYPTFGSGTKLEIKR
notes: Tested as hybridoma culture supernatant in the screening; also called antibody G

Molecular target: T1, wild-type human Claudin 5 protein
Assay: FACS screening of hybridoma supernatants on human Claudin 5-expressing HT-1080 cells against mock cells; positive clones
Protocol: The cells were washed three times with 0.2% BSA-TBS, and then mixed with 100 μL of a secondary antibody solution (FITC conjugated goat anti-mouse IgG+IgM in 1% BSA-PBS (1:400)), followed by a reaction at 4° C. for 1 hour. The cells were washed with 0.2% BSA-TBS, and FACS analysis (FACS caliber, BD Bioscience) was performed.

Binder | binding result
B1 | binds
B2 | binds
B3 | binds
